Assay results reported in PMC8651671.

T1: SerA (Achromobacter denitrificans, UniProt A0A3R9FY19)
T1 sequence (A0A3R9FY19 1-399): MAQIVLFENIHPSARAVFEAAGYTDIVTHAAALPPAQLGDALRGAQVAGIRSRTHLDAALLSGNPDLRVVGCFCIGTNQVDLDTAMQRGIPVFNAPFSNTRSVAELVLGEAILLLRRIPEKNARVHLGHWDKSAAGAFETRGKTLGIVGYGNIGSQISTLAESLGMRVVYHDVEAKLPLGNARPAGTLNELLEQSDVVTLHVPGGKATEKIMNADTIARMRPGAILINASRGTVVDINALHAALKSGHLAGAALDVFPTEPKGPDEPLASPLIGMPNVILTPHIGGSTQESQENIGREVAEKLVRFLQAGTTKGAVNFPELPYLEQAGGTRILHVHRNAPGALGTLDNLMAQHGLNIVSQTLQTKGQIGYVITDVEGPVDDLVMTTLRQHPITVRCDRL

T2: DhdR (GntR family regulator) (Achromobacter denitrificans NBRC 15125, UniProt A0A6N0JVZ6 1-238)
T2 sequence: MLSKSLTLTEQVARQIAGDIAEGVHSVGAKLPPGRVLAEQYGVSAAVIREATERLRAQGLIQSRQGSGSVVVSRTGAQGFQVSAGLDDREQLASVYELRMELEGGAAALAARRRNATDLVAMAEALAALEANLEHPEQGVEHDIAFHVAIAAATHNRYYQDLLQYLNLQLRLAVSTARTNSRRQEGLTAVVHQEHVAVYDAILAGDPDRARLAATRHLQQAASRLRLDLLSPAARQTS


Assays:
[1] = target: WbpB (Pseudomonas aeruginosa, UniProt G3XD23); experiment: HPLC product analysis, biosensor assay and bound-NADH oxidation with purified enzyme; assay type: biochemical
Sequence of WbpB (G3XD23 whole entry): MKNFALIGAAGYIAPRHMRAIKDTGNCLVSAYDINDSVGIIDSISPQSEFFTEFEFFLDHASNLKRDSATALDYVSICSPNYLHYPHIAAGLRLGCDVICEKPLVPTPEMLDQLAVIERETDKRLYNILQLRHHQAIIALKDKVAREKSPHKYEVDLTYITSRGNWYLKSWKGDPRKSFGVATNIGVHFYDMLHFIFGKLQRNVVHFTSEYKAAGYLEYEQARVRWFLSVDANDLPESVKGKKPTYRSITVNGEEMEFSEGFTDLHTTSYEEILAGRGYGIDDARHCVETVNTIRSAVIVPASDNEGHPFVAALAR

[2] = target: D-2-hydroxyglutarate dehydrogenase regulator (DhdR) of Achromobacter denitrificans NBRC 15125 (Achromobacter denitrificans NBRC 15125); experiment: SEC; Superdex 200 10/300 GL, 50 mM sodium phosphate, 150 mM NaCl, pH 7.2, 0.5 mL min^-1; native molecular weight against standard proteins, compared with SDS-PAGE
[3] = target: 3-phosphoglycerate dehydrogenase (SerA) of Achromobacter denitrificans NBRC 15125 (Achromobacter denitrificans NBRC 15125); experiment: as above
[4] = target: D-2-HG dehydrogenase (D2HGDH) of Achromobacter denitrificans NBRC 15125 (Achromobacter denitrificans NBRC 15125); experiment: as above
[5] = target: T3, DhdR; experiment: ITC; also thermal shift (ΔTm […] °C), EMSA, AlphaScreen; assay type: binding, Achromobacter denitrificans
T3 construct: His6-tagged DhdR

[6] = target: T1, SerA; experiment: product of 2-KG reduction by purified enzyme; assay type: biochemical
[7] = target: T2, DhdR (GntR family regulator); experiment: ITC; EMSA/footprint: 10 mM Tris-HCl pH 7.4, 50 mM KCl, 0.5 mM EDTA, 10% glycerol, 1 mM DTT, 30 C; ITC: 25 C, same buffer as FTS assays (composition not in material); conditions: protein: recombinant; tags: His6 (pETDuet-1); chain copies: 2; blunt
[8] = target: T2, DhdR (GntR family regulator); experiment: ITC; Supplementary Table 4 prints 3.03; EMSA/footprint: 10 mM Tris-HCl pH 7.4, 50 mM KCl, 0.5 mM EDTA, 10% glycerol, 1 mM DTT, 30 C; ITC: 25 C, same buffer as FTS assays (composition not in material); conditions: protein: recombinant; tags: His6 (pETDuet-1); chain copies: 2; blunt

| Molecule | Kd [7] | other results |
| --- | --- | --- |
| O=C(O)CCC(=O)C(=O)O [2-KG] | – | HPLC product analysis, biosensor assay and bound-NADH oxidation with purified en [1]: confirmed that WbpB also catalyzes the reduction of 2-KG to produce D-2-HG |
| D-2-hydroxyglutarate dehydrogenase regulator (DhdR) of Achromobacter denitrificans NBRC 15125 (natural protein) | – | stoichiometry N [2]: 2 |
| 3-phosphoglycerate dehydrogenase (SerA) of Achromobacter denitrificans NBRC 15125 (enzyme) | – | stoichiometry N [3]: 4 |
| D-2-HG dehydrogenase (D2HGDH) of Achromobacter denitrificans NBRC 15125 (enzyme) | – | stoichiometry N [4]: 2 |
| O=C(O)CC[C@@H](O)C(=O)O [D-2-HG] | – | Kd [5]: 1160 ± 160 nM; product of 2-KG reduction by purified enzyme [6]: It was also able to reduce 2-KG to D-2-HG |
| D5 (dhdO 5#) (dsDNA) DNA 1: AAAGTTAGCAGATAACCTGAAAAGTAG DNA 2: CTACTTTTCAGGTTATCTGCTAACTTT | 1140 ± 370 nM | – |
| D0 (dhdO 0#) (dsDNA) DNA 1: AAAGTTATCAGATAACCTGAAAAGTAG DNA 2: CTACTTTTCAGGTTATCTGATAACTTT | 640 ± 100 nM | – |
| D8 (dhdO 8#) (dsDNA) DNA 1: AAATTGATCAGATAACCTGAAAAGTAG DNA 2: CTACTTTTCAGGTTATCTGATCAATTT | 4020 ± 920 nM | – |
| D4 (dhdO 4#) (dsDNA) DNA 1: AAAGTTCTCAGATAACCTGAAAAGTAG DNA 2: CTACTTTTCAGGTTATCTGAGAACTTT | 580 ± 90 nM | – |
| D12 (dhdO 12#) (dsDNA) DNA 1: AAAGGGATCAGATAACCTGAAAAGTAG DNA 2: CTACTTTTCAGGTTATCTGATCCCTTT | 6250 ± 1820 nM | – |
| D9 (dhdO 9#) (dsDNA) DNA 1: AAATTTCTCAGATAACCTGAAAAGTAG DNA 2: CTACTTTTCAGGTTATCTGAGAAATTT | 3230 ± 1270 nM | – |
| D2 (dhdO 2#) (dsDNA) DNA 1: AAAGGTATCAGATAACCTGAAAAGTAG DNA 2: CTACTTTTCAGGTTATCTGATACCTTT | 2670 ± 530 nM | – |
| D6 (dhdO 6#) (dsDNA) DNA 1: AAAGTTATAAGATAACCTGAAAAGTAG DNA 2: CTACTTTTCAGGTTATCTTATAACTTT | 730 ± 180 nM | – |
| D10 (dhdO 10#) (dsDNA) DNA 1: AAATTTAGCAGATAACCTGAAAAGTAG DNA 2: CTACTTTTCAGGTTATCTGCTAAATTT | – | binding result [7]: no binding |
| D3 (dhdO 3#) (dsDNA) DNA 1: AAAGTGATCAGATAACCTGAAAAGTAG DNA 2: CTACTTTTCAGGTTATCTGATCACTTT | 1190 ± 250 nM | – |
| D1 (dhdO 1#) (dsDNA) DNA 1: AAATTTATCAGATAACCTGAAAAGTAG DNA 2: CTACTTTTCAGGTTATCTGATAAATTT | – | Kd [8]: 3290 ± 720 nM |
| D11 (dhdO 11#) (dsDNA) DNA 1: AAATTTATAAGATAACCTGAAAAGTAG DNA 2: CTACTTTTCAGGTTATCTTATAAATTT | 3230 ± 1410 nM | – |
| D13 (dhdO 13#) (dsDNA) DNA 1: AAAGGTCTCAGATAACCTGAAAAGTAG DNA 2: CTACTTTTCAGGTTATCTGAGACCTTT | 2460 ± 510 nM | – |
| D7 (dhdO 7#) (dsDNA) DNA 1: AAATGTATCAGATAACCTGAAAAGTAG DNA 2: CTACTTTTCAGGTTATCTGATACATTT | 5810 ± 2150 nM | – |
